Values quoted from earlier work, collected in article PMC11446229.
Where two headings read alike, the source gives them in different places. Each block holds one substance with its values, some of them ahead of it.

Tests used:
IscS (Escherichia coli) [1] = target: IscS (Escherichia coli) (UniProt P0A6B7)
SufS (Escherichia coli) = SufS (Escherichia coli) (UniProt P77444); test: surface plasmon resonance
SufS (Bacillus subtilis) = SufS (Bacillus subtilis) (UniProt O32164)
IscS (Escherichia coli) [2] = target: IscS (Escherichia coli) (UniProt P0A6B7); remark: listed apart in the source

Sequence of IscS (Escherichia coli) (P0A6B7 whole entry): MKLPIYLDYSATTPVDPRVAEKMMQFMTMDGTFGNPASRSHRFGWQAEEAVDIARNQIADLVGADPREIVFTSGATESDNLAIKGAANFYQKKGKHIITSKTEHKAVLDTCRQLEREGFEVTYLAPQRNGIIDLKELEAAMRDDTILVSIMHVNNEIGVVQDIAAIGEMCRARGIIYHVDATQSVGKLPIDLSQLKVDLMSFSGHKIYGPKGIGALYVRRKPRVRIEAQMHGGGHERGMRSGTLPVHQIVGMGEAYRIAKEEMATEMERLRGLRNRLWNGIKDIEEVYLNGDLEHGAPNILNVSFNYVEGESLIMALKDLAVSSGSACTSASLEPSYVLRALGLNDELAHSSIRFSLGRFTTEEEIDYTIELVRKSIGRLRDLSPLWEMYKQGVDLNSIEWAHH
Sequence of CyaY (P27838 whole entry): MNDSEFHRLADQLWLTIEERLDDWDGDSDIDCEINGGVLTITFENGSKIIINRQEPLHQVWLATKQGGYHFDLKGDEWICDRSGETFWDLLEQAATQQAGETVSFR
Sequence of SufS (Escherichia coli) (P77444 whole entry): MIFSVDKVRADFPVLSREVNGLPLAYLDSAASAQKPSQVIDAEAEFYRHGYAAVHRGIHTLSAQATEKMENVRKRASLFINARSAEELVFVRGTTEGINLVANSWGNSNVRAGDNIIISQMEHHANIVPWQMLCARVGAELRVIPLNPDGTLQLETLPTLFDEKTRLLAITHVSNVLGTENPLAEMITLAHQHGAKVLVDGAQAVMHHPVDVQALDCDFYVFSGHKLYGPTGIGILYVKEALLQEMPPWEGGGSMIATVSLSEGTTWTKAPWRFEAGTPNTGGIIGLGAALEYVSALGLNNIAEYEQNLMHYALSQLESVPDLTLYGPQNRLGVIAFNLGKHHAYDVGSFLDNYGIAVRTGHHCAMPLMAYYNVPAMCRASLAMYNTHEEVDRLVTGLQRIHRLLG
Sequence of SufU (O32163 whole entry): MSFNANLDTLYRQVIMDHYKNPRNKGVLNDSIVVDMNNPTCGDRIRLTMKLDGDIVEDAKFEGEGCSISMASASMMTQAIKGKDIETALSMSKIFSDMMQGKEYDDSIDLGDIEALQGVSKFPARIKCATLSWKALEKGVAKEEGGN
Sequence of SufE (P76194 whole entry): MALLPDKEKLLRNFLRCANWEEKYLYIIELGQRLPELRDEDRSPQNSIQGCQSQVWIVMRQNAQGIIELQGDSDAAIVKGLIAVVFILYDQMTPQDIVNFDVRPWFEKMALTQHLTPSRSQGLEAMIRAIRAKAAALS
Sequence of TusA (P0A890 whole entry): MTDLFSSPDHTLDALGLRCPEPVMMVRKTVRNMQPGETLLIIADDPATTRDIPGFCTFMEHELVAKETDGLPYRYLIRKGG
Sequence of SufS (Bacillus subtilis) (O32164 whole entry): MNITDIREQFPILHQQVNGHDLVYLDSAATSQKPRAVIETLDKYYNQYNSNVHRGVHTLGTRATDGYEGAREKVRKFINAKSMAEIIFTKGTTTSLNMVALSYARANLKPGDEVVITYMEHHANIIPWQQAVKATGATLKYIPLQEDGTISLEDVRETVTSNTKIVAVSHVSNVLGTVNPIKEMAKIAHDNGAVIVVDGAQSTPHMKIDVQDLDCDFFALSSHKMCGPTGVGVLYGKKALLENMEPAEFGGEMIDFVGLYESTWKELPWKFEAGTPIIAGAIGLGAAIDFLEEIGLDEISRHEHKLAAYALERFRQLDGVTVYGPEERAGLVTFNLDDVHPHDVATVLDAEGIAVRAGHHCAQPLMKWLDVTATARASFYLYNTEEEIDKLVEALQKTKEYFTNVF

Substance: TusA (from UniProt P0A890)
- Kd (IscS (Escherichia coli) [1]): 8 µM

Substance: SufE (from UniProt P76194)
- Kd (SufS (Escherichia coli)): 360 nM

- Kd (SufS (Bacillus subtilis)): 3000 nM
Substance: SufU (from UniProt O32163)

Substance: CyaY (from UniProt P27838)
- Kd (IscS (Escherichia coli) [2]): 23 µM
